In the supplement of paper PMC7125110:
± gives the standard error. Fewer inactive variants are shown than the library holds.

B1: glmS ribozyme (parent)
chain: AUAAAAGCGCCAGAACUACAGAAAUGUAGUUGACGAGGAGGAGGUUUAUCGAAUUUUCGGCGGAUGCCUCCAAA

Variants of: B1
Experiment: self-cleavage kobs at 640 uM GlcN6P; higher = faster cleavage; RNA array
Conditions: with glucosamine-6-phosphate
Method in brief: (§1)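 In situ transcription by E. coli RNA polymerase produced barcoded ribozyme variants on sequenced MiSeq chips, and a hybridised Cy3 probe tracked them at 37 °C. Glucosamine-6-phosphate was flowed in at 40 μM to 10 mM in HEPES/KCl/Mg(OAc)2 buffer. kcat and KM were taken from weighted Michaelis–Menten fits of kobs values from exponential decay fits.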

Variant	self-cleavage kobs at 640 uM GlcN6P
U55A C58U C61A C67A	8.67e-05 ± 2.1e-05 s⁻¹
A42C U54A U65C	< 1e-05 s⁻¹
A42G A52U	5.23e-05 ± 1.2e-05 s⁻¹
G43C U46G U56G	< 1e-05 s⁻¹
G51U G66A	< 1e-05 s⁻¹
G44U U49C G62U	< 1e-05 s⁻¹
G43U U47C G63U	< 1e-05 s⁻¹
U69G C71A	6.61e-05 ± 2.3e-05 s⁻¹
U45G C70G	0.000176 ± 7.2e-05 s⁻¹
G59U G62A U65A	< 1e-05 s⁻¹
G44U G51A C68U	< 1e-05 s⁻¹
A48C U56G G60A C61G	< 1e-05 s⁻¹
C58U A64C	< 1e-05 s⁻¹
G41U C50U G63U	< 1e-05 s⁻¹
U47A A48U C70U	0.000162 ± 5.1e-05 s⁻¹
G44A C61A G66A	< 1e-05 s⁻¹
U54A U55G C67U	0.000411 ± 0.00015 s⁻¹
U46A C70G	0.000146 ± 4.1e-05 s⁻¹
U47C U69C	0.000374 ± 0.00011 s⁻¹
U47C U69G	4.72e-05 ± 1.9e-05 s⁻¹

Variant	self-cleavage kobs at 640 uM GlcN6P
A53G U57C	0.000146 ± 4.6e-05 s⁻¹
A48U U57G G62U	< 1e-05 s⁻¹
U46G G62C	< 1e-05 s⁻¹
G44U G62A C70U	< 1e-05 s⁻¹
C61U C68G	4.29e-05 ± 1.5e-05 s⁻¹
G60U C67G C68U C70G	< 1e-05 s⁻¹
U55A C67A C70G	0.000113 ± 2.4e-05 s⁻¹
U47C U49C G62A G63A	< 1e-05 s⁻¹
G41U A42U C61A	< 1e-05 s⁻¹
G43C C61U G62A	< 1e-05 s⁻¹
G63C G66U	< 1e-05 s⁻¹
U54A U55G A64C	3.35e-05 ± 1.7e-05 s⁻¹
G41U A52C U65A	< 1e-05 s⁻¹
U49C U65A	< 1e-05 s⁻¹
U45G U65G G66U U69C	0.000332 ± 7.1e-05 s⁻¹
A48C C50G C67U C68U	0.000151 ± 3.3e-05 s⁻¹
G44U U47G A52G A64G	< 1e-05 s⁻¹
G60A C61U C70U	< 1e-05 s⁻¹
U45G U46C G59U U65G U69G	< 1e-05 s⁻¹
C58G C68U C71G	5.51e-05 ± 2.4e-05 s⁻¹

Variants of: B1
Experiment: self-cleavage kobs at 2500 uM GlcN6P; higher = faster cleavage; RNA array
Conditions: with glucosamine-6-phosphate
Method in brief: as §1

Variant	self-cleavage kobs at 2500 uM GlcN6P
A42G A52U	0.000479 ± 9.3e-05 s⁻¹
G7C G38A U49C A53C C61A	< 1e-05 s⁻¹
G51U G66A	< 1e-05 s⁻¹
G44U U49C G62U	< 1e-05 s⁻¹
G43U U47C G63U	< 1e-05 s⁻¹
U45G C70G	4.73e-05 ± 1.8e-05 s⁻¹
A6U C11G G44C C68G	< 1e-05 s⁻¹
A6U C10U A15U A53G	< 1e-05 s⁻¹
G59U G62A U65A	< 1e-05 s⁻¹
G7C A52U U55G C68G	< 1e-05 s⁻¹
G44U G51A C68U	< 1e-05 s⁻¹
A6G A33G U54A U56C	< 1e-05 s⁻¹
G7C G29U G32C A33G	< 1e-05 s⁻¹
G41U C50U G63U	< 1e-05 s⁻¹
A6G G44A A52U C61U G62A C70G C71U	< 1e-05 s⁻¹
G7A G29C G38A G44C	< 1e-05 s⁻¹
A6U G43A G51C	< 1e-05 s⁻¹
U47A A48U C70U	0.000141 ± 3.3e-05 s⁻¹
U54A U55G C67U	0.000903 ± 0.00028 s⁻¹
U46A C70G	0.00037 ± 0.00011 s⁻¹
G7A A12G G40U A48G A52C C67U	< 1e-05 s⁻¹
A6U G51C U55A G66A	< 1e-05 s⁻¹
U47C U69C	0.00197 ± 0.00045 s⁻¹
U47C U69G	0.000104 ± 2.3e-05 s⁻¹

Variant	self-cleavage kobs at 2500 uM GlcN6P
A6C G29C G51U A53G	< 1e-05 s⁻¹
G7A A53U G59A C70U	< 1e-05 s⁻¹
A53G U57C	0.000159 ± 4.1e-05 s⁻¹
A48U U57G G62U	< 1e-05 s⁻¹
G7C A53U U54G	< 1e-05 s⁻¹
A6G G7A C8U C61U	< 1e-05 s⁻¹
A6C G13C U45C	< 1e-05 s⁻¹
G7A G29U G59A G62U	< 1e-05 s⁻¹
U55A C67A C70G	7.88e-05 ± 1.6e-05 s⁻¹
G7C C8G G40C	< 1e-05 s⁻¹
G7C C10G G51U	< 1e-05 s⁻¹
A6G G60A C67G	< 1e-05 s⁻¹
G41U A42U C61A	< 1e-05 s⁻¹
A6G G29A C50G	0.000103 ± 3.9e-05 s⁻¹
G63C G66U	< 1e-05 s⁻¹
G7C U30A G44A	< 1e-05 s⁻¹
U54A U55G A64C	5.81e-05 ± 1.7e-05 s⁻¹
A6C G13A G38U U57G A64U	< 1e-05 s⁻¹
U45G U65G G66U U69C	0.00052 ± 0.00017 s⁻¹
A48C C50G C67U C68U	0.000255 ± 8.7e-05 s⁻¹
G60A C61U C70U	< 1e-05 s⁻¹
A6U C10G C50G A52G U55A C68A	0.000313 ± 7.4e-05 s⁻¹
G7C A36G U55C	< 1e-05 s⁻¹
U45G U46C G59U U65G U69G	< 1e-05 s⁻¹

Variants of: B1
Experiment: self-cleavage kobs at 10000 uM GlcN6P; higher = faster cleavage; RNA array
Conditions: with glucosamine-6-phosphate
Method in brief: as §1

Variant	self-cleavage kobs at 10000 uM GlcN6P
A42G A52U	0.000467 ± 9.8e-05 s⁻¹
U45G C70G	0.000258 ± 6.7e-05 s⁻¹
G41U C50U G63U	< 1e-05 s⁻¹
G7A G29C G38A G44C	< 1e-05 s⁻¹
U47A A48U C70U	0.000573 ± 0.00021 s⁻¹
U46A C70G	0.000156 ± 3.1e-05 s⁻¹
U47C U69G	6.08e-05 ± 1.5e-05 s⁻¹
A53G U57C	0.0005 ± 8.7e-05 s⁻¹
U46G G62C	< 1e-05 s⁻¹
G63C G66U	< 1e-05 s⁻¹
U49C U65A	< 1e-05 s⁻¹
U45G U65G G66U U69C	0.00192 ± 0.00028 s⁻¹
